The values that follow come from patent publication US20240383984A1 (Genentech, published 2024).

Test [1] deals with T1, cynomolgus FcRH5 protein fragment (soluble) (cynomolgus monkey).
T1 construct: whole entry named; also called Cyno FcRH5 (BIACORE analyte)
T1 chain: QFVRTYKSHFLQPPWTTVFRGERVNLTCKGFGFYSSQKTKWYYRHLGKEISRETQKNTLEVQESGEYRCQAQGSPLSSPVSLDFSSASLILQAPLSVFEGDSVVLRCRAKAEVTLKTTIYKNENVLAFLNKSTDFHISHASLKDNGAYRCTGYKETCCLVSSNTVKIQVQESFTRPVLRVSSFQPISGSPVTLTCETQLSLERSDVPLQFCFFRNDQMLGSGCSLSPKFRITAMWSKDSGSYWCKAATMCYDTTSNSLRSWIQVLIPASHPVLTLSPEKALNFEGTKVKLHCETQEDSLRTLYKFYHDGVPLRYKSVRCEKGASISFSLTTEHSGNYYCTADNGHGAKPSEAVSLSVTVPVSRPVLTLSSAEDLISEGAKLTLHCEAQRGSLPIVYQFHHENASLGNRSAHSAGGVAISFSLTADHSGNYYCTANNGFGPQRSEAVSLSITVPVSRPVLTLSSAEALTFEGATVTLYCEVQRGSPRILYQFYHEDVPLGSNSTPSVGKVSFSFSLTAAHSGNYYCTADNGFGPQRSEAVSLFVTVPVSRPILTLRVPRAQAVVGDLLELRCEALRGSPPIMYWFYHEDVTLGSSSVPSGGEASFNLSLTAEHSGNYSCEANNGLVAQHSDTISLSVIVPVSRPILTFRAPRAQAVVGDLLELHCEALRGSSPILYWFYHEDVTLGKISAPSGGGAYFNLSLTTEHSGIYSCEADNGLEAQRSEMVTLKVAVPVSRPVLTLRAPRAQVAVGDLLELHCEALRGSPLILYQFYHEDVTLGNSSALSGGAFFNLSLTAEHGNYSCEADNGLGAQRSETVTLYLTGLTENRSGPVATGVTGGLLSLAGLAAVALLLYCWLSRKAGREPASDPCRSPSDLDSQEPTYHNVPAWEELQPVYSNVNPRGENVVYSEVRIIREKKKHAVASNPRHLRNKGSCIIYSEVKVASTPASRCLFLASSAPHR
The test is described as follows: SPR (BIACORE), TDB captured as ligand, Cyno FcRH5 as analyte, 25 °C, 1:1 binding model.

A further test concerns the target T2, 293-FcRH5-DEL (human, UniProt Q96RD9).
T2 construct: domain 9 deletion, expressed on 293 cells
T2 sequence (receptor, looked up): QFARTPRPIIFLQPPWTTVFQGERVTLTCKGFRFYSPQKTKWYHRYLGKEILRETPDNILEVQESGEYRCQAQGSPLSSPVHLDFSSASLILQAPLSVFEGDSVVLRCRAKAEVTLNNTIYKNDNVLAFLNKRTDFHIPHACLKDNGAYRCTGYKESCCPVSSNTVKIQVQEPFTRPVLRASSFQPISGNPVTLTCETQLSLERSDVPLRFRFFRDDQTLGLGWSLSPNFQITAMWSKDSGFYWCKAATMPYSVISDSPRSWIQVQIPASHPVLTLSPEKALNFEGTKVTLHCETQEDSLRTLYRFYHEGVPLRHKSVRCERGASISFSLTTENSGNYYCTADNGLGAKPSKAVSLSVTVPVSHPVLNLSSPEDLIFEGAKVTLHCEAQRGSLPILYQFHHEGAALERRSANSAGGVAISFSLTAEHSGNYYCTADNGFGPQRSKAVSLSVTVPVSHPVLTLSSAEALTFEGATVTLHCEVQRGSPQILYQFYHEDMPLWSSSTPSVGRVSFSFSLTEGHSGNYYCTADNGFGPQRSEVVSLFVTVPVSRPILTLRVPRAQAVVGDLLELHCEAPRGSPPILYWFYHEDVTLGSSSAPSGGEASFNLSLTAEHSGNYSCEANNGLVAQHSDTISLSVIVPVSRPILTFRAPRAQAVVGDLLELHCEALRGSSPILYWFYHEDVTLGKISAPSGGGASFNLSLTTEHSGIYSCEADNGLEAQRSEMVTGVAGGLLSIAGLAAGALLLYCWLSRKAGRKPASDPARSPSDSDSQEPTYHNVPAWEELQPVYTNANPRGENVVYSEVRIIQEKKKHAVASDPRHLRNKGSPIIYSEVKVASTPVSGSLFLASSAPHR
The test is described as follows: flow cytometry on 293 cells with domain 9-deleted FcRH5, PE-labelled secondary.

In test [2] the target is T1, cynomolgus FcRH5 protein fragment …. The test is described as follows: SPR (BIACORE), hIgG capture format, 1:1 binding model, monovalent affinity; same numbers as FIG. 10B, Cyno FcRH5 panel. Here is the method:
Kinetic characterization experiments were carried out (see Table 8). In these experiments, binding of soluble FcRH5 protein fragment to purified antibodies in human TDB antibody format was analyzed at six different non-zero concentrations (a 1:3 dilution series, one concentration injected twice as a replicate). Flow rate was set at 40 μl/min and association and dissociation monitored for 600 s.

Test [3] addresses T3, human FcRH4 (full-length, on SVT2 cells) (human, UniProt Q96PJ5 20-515).
T3 construct: whole, on cells; also called SVT2-FcRH4
T3 sequence (looked up): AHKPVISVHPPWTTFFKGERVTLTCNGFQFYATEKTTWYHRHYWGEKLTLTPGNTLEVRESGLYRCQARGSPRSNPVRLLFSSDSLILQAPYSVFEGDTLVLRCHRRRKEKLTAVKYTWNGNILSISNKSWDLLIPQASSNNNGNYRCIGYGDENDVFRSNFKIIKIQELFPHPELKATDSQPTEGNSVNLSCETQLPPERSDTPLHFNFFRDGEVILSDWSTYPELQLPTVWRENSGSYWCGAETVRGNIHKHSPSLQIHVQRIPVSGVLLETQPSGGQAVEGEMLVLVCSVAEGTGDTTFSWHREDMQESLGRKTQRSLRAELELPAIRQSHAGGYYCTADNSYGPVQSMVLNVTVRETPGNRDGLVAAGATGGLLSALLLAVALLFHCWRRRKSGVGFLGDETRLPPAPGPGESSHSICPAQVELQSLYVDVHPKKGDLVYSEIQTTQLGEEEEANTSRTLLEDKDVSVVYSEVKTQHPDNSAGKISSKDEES
The test is described as follows: flow cytometry on SVT2-FcRH4 cells, PE-labelled secondary. The protocol:
Human FcRH5, cyno FcRH5, human FcRH1, FcRH2, FcRH3, and FcRH4 transfected mouse SVT2 cells were used to test binding and cross-reactivity of FcRH5 TDBs. The method was carried out as follows. Cultured SVT2 cells were lifted using non-enzyme cell dissociation buffer (Sigma, #C5914). 1×10⁵ cells were suspended in 100 μL and incubated with FcRH5 TDBs at 3 μg/ml. […] Cells were washed twice with FACS buffer before flow cytometry analysis was carried out on a FACSCalibur.

B1: 1G7.v85/38E4.v1 TDB (bispecific antibody, V domains shown)
VH 1: EVQLVESGPGLVKPSETLSLTCTVSGFSLTRFGVHWVRQPPGKGLEWLGVIWRGGSTDYNAAFVSRLTISKDNSKNQVSLKLSSVTAADTAVYYCSNHYYGSSDYALDNWGQGTLVTVSS
VL 1: DIQMTQSPSSLSASVGDRVTITCKASQDVRNLVVWFQQKPGKAPKLLIYSGSYRYSGVPSRFSGSGSGTDFTLTISSLQPEDFATYYCQQHYSPPYTFGQGTKVEIK
VH 2: EVQLVQSGAEVKKPGASVKVSCKASGFTFTSYYIHWVRQAPGQGLEWIGWIYPENDNTKYNEKFKDRVTITADTSTSTAYLELSSLRSEDTAVYYCARDGYSRYYFDYWGQGTLVTVSS
VL 2: DIVMTQSPDSLAVSLGERATINCKSSQSLLNSRTRKNYLAWYQQKPGQSPKLLIYWTSTRKSGVPDRFSGSGSGTDFTLTISSLQAEDVAVYYCKQSFILRTFGQGTKVEIK
notes: knob-into-hole TDB; also called 1G7.v85 TDB; 1G7.v85 (TDB format)
For the molecule B1, in test [1], the Kd turned out to be 6.76 nM, the off-rate constant (koff) is 0.000847 s⁻¹ and the kon is 125000 M⁻¹ s⁻¹. Moreover, the binding result with 293-FcRH5-DEL is recorded as “no binding”. Also, in test [2], the Kd was determined as 6.76 nM, the dissociation rate constant (koff) was determined as 0.000847 s⁻¹ and the on-rate (kon) is 125000 M⁻¹ s⁻¹. In test [3], the binding result is on record as “no binding”.
